This is an account of results in publication PMC6683420 (BMC Molecular and Cell Biology, 2019).

The target in test [1] is T1, human CD40 (human, UniProt P25942). The experiment in a line: cell-based or functional assay.
Test [2] concerns the target T1, human CD40. Briefly: cell-based or functional assay. The source holds these as a separate data set.

Substitutions are numbered along the chain they refer to.

T1 sequence (P25942 21-277): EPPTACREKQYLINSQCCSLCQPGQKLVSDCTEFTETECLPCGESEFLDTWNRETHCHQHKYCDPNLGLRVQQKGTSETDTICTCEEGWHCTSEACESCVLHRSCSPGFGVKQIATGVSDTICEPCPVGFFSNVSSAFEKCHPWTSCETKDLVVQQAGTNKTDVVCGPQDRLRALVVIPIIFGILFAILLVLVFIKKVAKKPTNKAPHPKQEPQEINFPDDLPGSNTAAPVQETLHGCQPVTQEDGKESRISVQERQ

B1: ABBV-323 (ravagalimab), human IgG1/κ anti-CD40 antagonist mAb (antibody, V domains shown)
VH: EVQLVESGGGLVKPGGSLRLSCAASGFTFSDYGMNWVRQAPGKGLEWIAYISSGRGNIYYADTVKGRFTISRDNAKNSLYLQMNSLRAEDTAVYYCARSWGYFDVWGQGTTVTVSS
VL: DIVMTQSPDSLAVSLGERATINCKSSQSLLNRGNQKNYLTWFQQKPGQPPKLLIYWASTRESGVPDRFSGSGSGTDFTLTISSLQAEDVAVYYCQNDYTYPLTFGQGTKLEIK
For B1, in test [1], the “Antagonist: Jurkat/ Reporter assay IC50 nM; blocks m8 with m7” value was found to be 3.1 nM. In addition, in test [2], the “EC50 of antagonist activity in the CD40-dependent NF-kB SEAP reporter assay (HEK-293 transfected with human CD40, stimulated with recombinant CD40L); blocks m8 with m7” value was 3.7 nM and the “EC50 of inhibition of CD86 upregulation on primary human B cells stimulated with CD40L-expressing Jurkat cells; blocks m8 with m7” value turned out to be 0.6 nM.

B2: FAB516, anti-CD40 agonist antibody variant of ABBV-323 (antibody, V domains shown)
VH: B1 VH with I48V, A49S, G56S
VL: B1 VL with R32L
For B2, the “Agonist: huCD40 reporter assay IC50” value in test [1] is 157 nM.
